Sequences and labels used below:
B1: IL-2Rαβγ complex (complex)
chain 1: ELCDDDPPEIPHATFKAMAYKEGTMLNCECKRGFRRIKSGSLYMLCTGNSSHSSWDNQCQCTSSATRNTTKQVTPQPEEQKERKTTEMQSPMQPVDQASLPGHCREPPPWENEATERIYHFVVGQMVYYQCVQGYRALHRGPAESVCKMTHGKTRWTQPQLICTGEMETSQFPGEEKPQASPEGRPESETSCLVTTTDFQIQTEMAATMETSIFTTEYQ
chain 2: AVNGTSQFTCFYNSRANISCVWSQDGALQDTSCQVHAWPDRRRWNQTCELLPVSQASWACNLILGAPDSQKLTTVDIVTLRVLCREGVRWRVMAIQDFKPFENLRLMAPISLQVVHVETHRCNISWEISQASHYFERHLEFEARTLSPGHTWEEAPLLTLKQKQEWICLETLTPDTQYEFQVRVKPLQGEFTTWSPWSQPLAFRTKPAALGKDT
chain 3: LNTTILTPNGNEDTTADFFLTTMPTDSLSVSTLPLPEVQCFVFNVEYMNCTWNSSSEPQPTNLTLHYWYKNSDNDKVQKCSHYLFSEEITSGCQLQKKEIHLYQTFVVQLQDPREPRRQATQMLKLQNLVIPWAPENLTLHKLSESQLELNWNNRFLNHCLEHLVQYRTDWDHSWTEQSVDYRHKFSLPSVDGQKRYTFRVRSRFNPLCGSAQHWSEWSHPIHWGSNTSKENPFLFALEA
B2: IL-2Rβ (receptor)
chain: AVNGTSQFTCFYNSRANISCVWSQDGALQDTSCQVHAWPDRRRWNQTCELLPVSQASWACNLILGAPDSQKLTTVDIVTLRVLCREGVRWRVMAIQDFKPFENLRLMAPISLQVVHVETHRCNISWEISQASHYFERHLEFEARTLSPGHTWEEAPLLTLKQKQEWICLETLTPDTQYEFQVRVKPLQGEFTTWSPWSQPLAFRTKPAALGKDT
B3: IL-2Rα (receptor)
chain: ELCDDDPPEIPHATFKAMAYKEGTMLNCECKRGFRRIKSGSLYMLCTGNSSHSSWDNQCQCTSSATRNTTKQVTPQPEEQKERKTTEMQSPMQPVDQASLPGHCREPPPWENEATERIYHFVVGQMVYYQCVQGYRALHRGPAESVCKMTHGKTRWTQPQLICTGEMETSQFPGEEKPQASPEGRPESETSCLVTTTDFQIQTEMAATMETSIFTTEYQ
B4: IL-2Rβγ complex (complex)
chain 1: AVNGTSQFTCFYNSRANISCVWSQDGALQDTSCQVHAWPDRRRWNQTCELLPVSQASWACNLILGAPDSQKLTTVDIVTLRVLCREGVRWRVMAIQDFKPFENLRLMAPISLQVVHVETHRCNISWEISQASHYFERHLEFEARTLSPGHTWEEAPLLTLKQKQEWICLETLTPDTQYEFQVRVKPLQGEFTTWSPWSQPLAFRTKPAALGKDT
chain 2: LNTTILTPNGNEDTTADFFLTTMPTDSLSVSTLPLPEVQCFVFNVEYMNCTWNSSSEPQPTNLTLHYWYKNSDNDKVQKCSHYLFSEEITSGCQLQKKEIHLYQTFVVQLQDPREPRRQATQMLKLQNLVIPWAPENLTLHKLSESQLELNWNNRFLNHCLEHLVQYRTDWDHSWTEQSVDYRHKFSLPSVDGQKRYTFRVRSRFNPLCGSAQHWSEWSHPIHWGSNTSKENPFLFALEA
B5: IL-2Rαβγ complex (complex)
chain 1: ELCDDDPPEIPHATFKAMAYKEGTMLNCECKRGFRRIKSGSLYMLCTGNSSHSSWDNQCQCTSSATRNTTKQVTPQPEEQKERKTTEMQSPMQPVDQASLPGHCREPPPWENEATERIYHFVVGQMVYYQCVQGYRALHRGPAESVCKMTHGKTRWTQPQLICTGEMETSQFPGEEKPQASPEGRPESETSCLVTTTDFQIQTEMAATMETSIFTTEYQVAVAGCVFLLISVLLLSGLTWQRRQRKSRRTI
chain 2: AVNGTSQFTCFYNSRANISCVWSQDGALQDTSCQVHAWPDRRRWNQTCELLPVSQASWACNLILGAPDSQKLTTVDIVTLRVLCREGVRWRVMAIQDFKPFENLRLMAPISLQVVHVETHRCNISWEISQASHYFERHLEFEARTLSPGHTWEEAPLLTLKQKQEWICLETLTPDTQYEFQVRVKPLQGEFTTWSPWSQPLAFRTKPAALGKDTIPWLGHLLVGLSGAFGFIILVYLLINCRNTGPWLKKVLKCNTPDPSKFFSQLSSEHGGDVQKWLSSPFPSSSFSPGGLAPEISPLEVLERDKVTQLLLQQDKVPEPASLSSNHSLTSCFTNQGYFFFHLPDALEIEACQVYFTYDPYSEEDPDEGVAGAPTGSSPQPLQPLSGEDDAYCTFPSRDDLLLFSPSLLGGPSPPSTAPGGSGAGEERMPPSLQERVPRDWDPQPLGPPTPGVPDLVDFQPPPELVLREAGEEVPDAGPREGVSFPWSRPPGQGEFRALNARLPLNTDAYLSLQELQGQDPTHLV
chain 3: LNTTILTPNGNEDTTADFFLTTMPTDSLSVSTLPLPEVQCFVFNVEYMNCTWNSSSEPQPTNLTLHYWYKNSDNDKVQKCSHYLFSEEITSGCQLQKKEIHLYQTFVVQLQDPREPRRQATQMLKLQNLVIPWAPENLTLHKLSESQLELNWNNRFLNHCLEHLVQYRTDWDHSWTEQSVDYRHKFSLPSVDGQKRYTFRVRSRFNPLCGSAQHWSEWSHPIHWGSNTSKENPFLFALEAVVISVGSMGLIISLLCVYFWLERTMPRIPTLKNLEDLVTEYHGNFSAWSGVSKGLAESLQPDYSERLCLVSEIPPKGGALGEGPGASPCNQHSPYWAPPCYTLKPET
B6: IL-2Rβγ complex (complex)
chain 1: AVNGTSQFTCFYNSRANISCVWSQDGALQDTSCQVHAWPDRRRWNQTCELLPVSQASWACNLILGAPDSQKLTTVDIVTLRVLCREGVRWRVMAIQDFKPFENLRLMAPISLQVVHVETHRCNISWEISQASHYFERHLEFEARTLSPGHTWEEAPLLTLKQKQEWICLETLTPDTQYEFQVRVKPLQGEFTTWSPWSQPLAFRTKPAALGKDTIPWLGHLLVGLSGAFGFIILVYLLINCRNTGPWLKKVLKCNTPDPSKFFSQLSSEHGGDVQKWLSSPFPSSSFSPGGLAPEISPLEVLERDKVTQLLLQQDKVPEPASLSSNHSLTSCFTNQGYFFFHLPDALEIEACQVYFTYDPYSEEDPDEGVAGAPTGSSPQPLQPLSGEDDAYCTFPSRDDLLLFSPSLLGGPSPPSTAPGGSGAGEERMPPSLQERVPRDWDPQPLGPPTPGVPDLVDFQPPPELVLREAGEEVPDAGPREGVSFPWSRPPGQGEFRALNARLPLNTDAYLSLQELQGQDPTHLV
chain 2: LNTTILTPNGNEDTTADFFLTTMPTDSLSVSTLPLPEVQCFVFNVEYMNCTWNSSSEPQPTNLTLHYWYKNSDNDKVQKCSHYLFSEEITSGCQLQKKEIHLYQTFVVQLQDPREPRRQATQMLKLQNLVIPWAPENLTLHKLSESQLELNWNNRFLNHCLEHLVQYRTDWDHSWTEQSVDYRHKFSLPSVDGQKRYTFRVRSRFNPLCGSAQHWSEWSHPIHWGSNTSKENPFLFALEAVVISVGSMGLIISLLCVYFWLERTMPRIPTLKNLEDLVTEYHGNFSAWSGVSKGLAESLQPDYSERLCLVSEIPPKGGALGEGPGASPCNQHSPYWAPPCYTLKPET

From publication PMC11024467 (2024) come the findings set out here.

Broadly, the Kd is the equilibrium constant for the complex coming apart.

The first test concerns the target Wild type IL-2 (de-alanine-1, C58S, C125S) (UniProt P60568 21-153, de-alanine-1 | C58S | C125S). As to the kind of experiment: SPR. Background: SPR reads the build-up and loss of mass on a sensor chip optically.
The molecule B1 showed a dissociation constant Kd of 0.0423 nM.
On the same count and under the same terms, the result for B2 reads 89.1 nM; that for B3, 47.5 nM.
The same measure, in the same setting: the same measure for B4: 0.463 nM.

A further test addresses IL-2 variant 012. As to the kind of experiment: SPR.
For the molecule B5, binding was put at a Kd of 0.575 nM.
B6: the affinity, expressed as Kd, was 0.467 nM.
